Laboratory results reported in doi:10.1101/2025.11.06.687013.
Starred links: 1 amine or outer side, 2 acyl side, 3 side chain; linkers in the order of their positions; H or OH if unused. Non-standard residues stand in square brackets, D forms with d. No end group written: not given here. βAsp = O=C(O)[C@H](CC(=O)[*:2])N[*:1]

Target: H-2K^b (mouse (endogenous in RMA-S))
Assay: flow cytometry on cells

fold decrease of H-2Kb display against ca3: > 100 fold
Binder: I[βAsp]FDFPKL [ca3_(isoasp)]
